Test system: MS2 coat protein
Test: apparent KD of MS2 coat protein; designed switch direction (-1 OFF switch, 1 ON switch): -1; higher = weaker reporter binding
Outline: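 Designed RNA switches with common flanks were made on Illumina chips by stalled E. coli RNA polymerase. Titration with SNAP-549-labelled MS2 coat protein doubled from 0.7 or 1.5 nM up to 3 µM. Apparent KD is each design's median over clusters after curve-fitting normalised fluorescence.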

[1] = input ligand: microRNA oligo, concentration not stated
[2] = Eterna round: R95, input ligand: microRNA oligo, concentration not stated
[3] = Eterna round: R95, input ligand: FMN 200 uM
[4] = Eterna round: R95, input ligand: none

Sequence | apparent KD of MS2 coat protein (input ligand: FMN 200 uM) [nM] | apparent KD of MS2 coat protein [1] [nM] | apparent KD of MS2 coat protein (input ligand: none) [nM] | apparent KD of MS2 coat protein [2] [nM] | apparent KD of MS2 coat protein [3] [nM] | apparent KD of MS2 coat protein [4] [nM]
UGUUUAUAUGAAGGAUAUACUUAACAUGAGGAUCACCCAUGUGGUGUUGUGAGUGAGUGAGUUUAGUAGAAGGUCAAGUAUUUU [JMF's solution 54] (Eterna round: R96, puzzle: Exclusion NG 2) | 681 | 373 | 395 |  |  | 
UUAAACGCAGGAUAUACAUUUUUUUUAUUAUCCUCAUAAAUACAUGAGGAUCACCCAUGUAGAAGGGCGAAAUU [Mat - Exclusion 2 - Mod of Hog - D87] (puzzle: Exclusion 2) |  |  |  | 144 |  | 
UUAAAUAAUGUAGGAUAUGCAAGGCGAACCUAAGCAGAAGGACAUGAGGAUCACCCAUGUAAUGCGGUCUGCGUACAGAUCGCA [JL ENG1 1.01] (Eterna round: R96, puzzle: Exclusion NG 1) | 59.4 | 23.2 | 24.2 |  |  | 
UUAAAUAGUGUGAGGAUAUGCUGGUCCUUGGAUCAGCAGAAGGCACAUGAGGAUCACCCAUGUAGUUAAUUUUA [Mat - Exclusion 4 - JL Mod - D22] (puzzle: Brourd's mod of Exclusion 4) |  |  |  | 37.4 |  | 
UUAAAUCAUGUAGGAUAUGCGUGGAGAAGCUAUGCAGAAGGACAUGAGGAUCACCCAUGUGCUUCCGUCUGCGUACAGAUGGUA [Mat - Exclusion NG 1 - Mod of JL - D7] (Eterna round: R96, puzzle: Exclusion NG 1) | 84.5 | 17.1 | 19.5 |  |  | 
UUAAAUCAUGUAGGAUAUGCGUGGCGAAGCUAUGCAGAAGGACAUGAGGAUCACCCAUGUGCUUCCGUCUGCGUACAGAUGGAA [JL Eng1 1.08 mod 3] (Eterna round: R96, puzzle: Exclusion NG 1) | 81.4 | 80.6 | 109 |  |  | 
UUAAAUCAUGUAGGAUAUGCGUGGCGAAGCUAUGCAGAAGGACAUGAGGAUCACCCAUGUUCCUGCGUCCGCGUACGGAUGCAA [JL Eng1 1.21 mod] (Eterna round: R96, puzzle: Exclusion NG 1) | 167 | 16.3 | 18.1 |  |  | 
UUAAUACAUGUAGGAUAUGCGUGGCGAAGCUAUGCAGAAGGACAUGAGGAUCACCCAUGUCUCUGCGUCCGCGUACGGAUGCAA [JL Eng1 1.21 mod 5] (Eterna round: R96, puzzle: Exclusion NG 1) | 13.9 | 11.6 | 15.8 |  |  | 
UUAAUGUGAGGAUAUCAAGUGUGAUAGAGUAAUGGUAAAUAUGAGAAGGCACAUGAGGAUCACCCAUGUUCUUC [Mat - Exclusion 4 - Mod of JL - D59] (puzzle: Exclusion 4) |  |  |  | 14 |  | 
UUAAUGUGAGGAUAUCAGGUGUGCUAGCGUACUGGUACAUCUGAGAAGGCACAUGAGGAUCACCCAUGUUCCUU [JL-ex4-3.27 Brourd mod] (Eterna round: R96, puzzle: Exclusion 4) | 59.4 | 15.9 | 20.6 |  |  | 
UUAAUGUGAGGAUAUCAGGUGUGCUAGCGUACUGGUACAUCUGAGAAGGCACAUGAGGAUCACCCAUGUUCCUU [JL-ex4-3.27 Brourd mod] (puzzle: Exclusion 4) |  |  |  | 16.2 |  | 
UUAAUUAAUUAAGGCUGAAGAUCACAUGAGGAUCACCCAUGUAAGGAUAUCAGCUCGAUUAGAGCUGAGAAGGUACAUGCAGCC [ExNG3/18-B1] (Eterna round: R96, puzzle: Exclusion NG 3) | 53.9 | 377 | 319 |  |  | 
UUAAUUAAUUAAUUAUAAGAUCAACAUGAGGAUCACCCAUGUGAGGAUAUCAGCUCGUUUAGAGCUGAGAAGGCACAAAUAAUU [ExNG3/16-B2] (Eterna round: R96, puzzle: Exclusion NG 3) | 208 | 45.7 | 49.8 |  |  | 
UUAAUUAGCAGGCAAGAUCAUUACAUGAGGAUCACCCAUGUCGAGGAUAUCAGCUCGAUUAGAGCUGAGAAGGCGACAGCCUGC [ExNG3/13-A1] (Eterna round: R96, puzzle: Exclusion NG 3) | 1540 | 443 | 382 |  |  | 
UUACAGCAAGGAUAUACAUGAGGAUCACCCAUGUAUGCAUGUUCGAGAGAGGCCUACGGUAGAAGGUGCAUGUU [EX3 C.11] (Eterna round: R97, puzzle: Exclusion 3) | 25.2 |  | 39.8 |  |  | 
UUACUCGCAGGAUAUACGGGACAUACACAUCAAACUACACGACAUGAGGAUCACCCAUGUAGAAGGGCGUUACA [Blue and Green] (Eterna round: R97, puzzle: Exclusion 2) | 73.5 |  | 51.2 |  |  | 
UUACUGCAAGGAUAUACAUGAGGAUCACCCAUGUUAAUGACACGGUGCAGCUUCGACAGUAGAAGGUGCGUGGG [Eternabot (L1) Solution 71] (Eterna round: R97, puzzle: Exclusion 3) | 43.2 |  | 34.7 |  |  | 
UUAGAAAGGUUAGGAUAUUAAUUAUUGUAUAGUAUGAUCUACAUGAGGAUCACCCAUGUUAAAUAUAAGAAGGAACGUUAGAUU [JR_ExcNG2_Sub093] (Eterna round: R96, puzzle: Exclusion NG 2) |  | 39.9 |  |  |  | 
UUAGAAAUGGUAGGAUAUUAGUAGUGUUUUACUCUGAUCCACAUGAGGAUCACCCAUGUGAGUAGUGAGAAGGAUCAUUUUAUG [base off of JR design] (Eterna round: R96, puzzle: Exclusion NG 2) | 21.1 | 17.8 | 19.3 |  |  | 
UUAUAAAGAGUGAGGAUAUGCUGGUCCUUGGAUCAGCAGAAGGCACAUGAGGAUCACCCAUGUAAAAUAAUAUU [Mat - Exclusion 4 - JL Mod - D40] (puzzle: Brourd's mod of Exclusion 4) |  |  |  | 25.4 |  | 
UUAUACAAGCAAAGAUCCCACAUGAGGAUCACCCAUGUGCUCGUCUUAUAAGGAACUGUGACGAAAGUCACGGUUCC [Mat - Sensor, turn-off var - Eli Mod - D100] (Eterna round: R97, puzzle: Sensor, turn-off variant 1) | 36.2 |  | 37.2 |  |  | 
UUAUACGGUGAGGAUAUCUCCACUAAAGUGUGAAGAGAAGGCGCUACAUGAGGAUCACCCAUGUCUAUGGGCAG [Ex-6 Malc#16] (puzzle: Exclusion 6) |  |  |  | 262 | 905 | 320
UUAUACGUUGAGGAUAUGUUAUUUAGUAUAGUUACAGAAGGCGAUACAUGAGGAUCACCCAUGUUUAUGGGCAU [Ex-6 Malc#1] (puzzle: Exclusion 6) |  |  |  | 196 |  | 
UUAUAGUUAGAGGAUAUAUUAAGGUAUGCUUUGAUAGAAGGCUAGACAUGAGGAUCACCCAUGUAUAUUGGGAU [JR_Ex6_Sub075] (Eterna round: R97, puzzle: Exclusion 6) | 425 |  | 220 |  |  | 
UUAUAUAAUGUGAGGAUAUGCUGGUCCAUAGAUCAGCAGAAGGCACAUGAGGAUCACCCAUGUAGUAAAUUUUA [Mat - Exclusion 4 - JL Mod - D12] (puzzle: Brourd's mod of Exclusion 4) |  |  |  | 14.5 | 24.2 | 14.8

Reference: the supplement of paper PMC9170038
